In PMC4007151 (Nature communications, 2013):
No end group written: not given here.

Molecular target: T1, PHF1 Tudor-PHD1 (human, UniProt O43189 14-140)
T1 sequence: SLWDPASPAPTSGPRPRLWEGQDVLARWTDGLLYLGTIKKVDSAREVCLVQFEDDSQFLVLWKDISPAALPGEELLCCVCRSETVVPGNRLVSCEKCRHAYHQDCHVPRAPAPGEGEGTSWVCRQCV
Assay: NMR titration

## ATGGVK(Me3)KPHR [H3K36me3 peptide]
  binding result: binds
